Starred links: 1 amine or outer side, 2 acyl side, 3 side chain; linkers in the order of their positions; H or OH if unused. Non-standard residues stand in square brackets, D forms with d. Groups on a side chain read outwards from the residue. No end group written: not given here. *: point of attachment. C20 diacid = O=C(O)CCCCCCCCCCCCCCCCCCC(=O)*; γGlu = O=C(O)[C@H](CCC(=O)[*:2])N[*:1]; αMeL = CC(C)C[C@](C)(N)C(=O)O; AEEA = NCCOCCOCC(=O)O; Aib = CC(C)(N)C(=O)O
T1: human glucose-dependent insulinotropic polypeptide (GIP) receptor (human, UniProt P48546 22-466)
T1 construct: whole, on cells; Assayed as crude membranes of stably transfected CHO cells; also called hGIPR; human GIP receptor
T1 sequence (looked up): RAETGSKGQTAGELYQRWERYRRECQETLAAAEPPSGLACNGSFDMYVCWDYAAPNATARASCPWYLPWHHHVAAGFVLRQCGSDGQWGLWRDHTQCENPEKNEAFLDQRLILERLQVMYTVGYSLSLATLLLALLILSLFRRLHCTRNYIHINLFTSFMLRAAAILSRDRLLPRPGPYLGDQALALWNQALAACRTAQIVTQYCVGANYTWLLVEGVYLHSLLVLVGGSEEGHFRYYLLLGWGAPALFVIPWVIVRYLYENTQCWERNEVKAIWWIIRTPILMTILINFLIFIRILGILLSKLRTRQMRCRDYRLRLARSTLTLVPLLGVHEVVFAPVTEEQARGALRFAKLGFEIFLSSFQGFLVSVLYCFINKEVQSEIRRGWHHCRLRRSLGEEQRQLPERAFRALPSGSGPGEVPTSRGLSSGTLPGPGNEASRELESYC

B1: Example 53 (peptide)
peptide: Y[Aib]EGTFISDYSI[αMeL]LDKK([AEEA-AEEA-γGlu-C20 diacid])HQ[Aib]DFVEYLLAGGPSSGAPPPS-NH2
modifications: N-terminus assumed
SMILES: CC[C@H](C)[C@H](NC(=O)[C@H](Cc1ccccc1)NC(=O)[C@@H](NC(=O)CNC(=O)[C@H](CCC(=O)O)NC(=O)C(C)(C)NC(=O)[C@@H](N)Cc1ccc(O)cc1)[C@@H](C)O)C(=O)N[C@@H](CO)C(=O)N[C@@H](CC(=O)O)C(=O)N[C@@H](Cc1ccc(O)cc1)C(=O)N[C@@H](CO)C(=O)N[C@H](C(=O)N[C@@](C)(CC(C)C)C(=O)N[C@@H](CC(C)C)C(=O)N[C@@H](CC(=O)O)C(=O)N[C@@H](CCCCN)C(=O)N[C@@H](CCCCNC(=O)COCCOCCNC(=O)COCCOCCNC(=O)CC[C@H](NC(=O)CCCCCCCCCCCCCCCCCCC(=O)O)C(=O)O)C(=O)N[C@@H](Cc1c[nH]cn1)C(=O)N[C@@H](CCC(N)=O)C(=O)NC(C)(C)C(=O)N[C@@H](CC(=O)O)C(=O)N[C@@H](Cc1ccccc1)C(=O)N[C@H](C(=O)N[C@@H](CCC(=O)O)C(=O)N[C@@H](Cc1ccc(O)cc1)C(=O)N[C@@H](CC(C)C)C(=O)N[C@@H](CC(C)C)C(=O)N[C@@H](C)C(=O)NCC(=O)NCC(=O)N1CCC[C@H]1C(=O)N[C@@H](CO)C(=O)N[C@@H](CO)C(=O)NCC(=O)N[C@@H](C)C(=O)N1CCC[C@H]1C(=O)N1CCC[C@H]1C(=O)N1CCC[C@H]1C(=O)N[C@@H](CO)C(N)=O)C(C)C)[C@@H](C)CC
B2: Example 63 (peptide)
peptide: Y[Aib]EGTFISDYSI[αMeL]LDKK([AEEA-AEEA-γGlu-C20 diacid])HQ[Aib]EFVEYLLEQGPSSGAPPPS-NH2
modifications: N-terminus assumed
SMILES: CC[C@H](C)[C@H](NC(=O)[C@H](Cc1ccccc1)NC(=O)[C@@H](NC(=O)CNC(=O)[C@H](CCC(=O)O)NC(=O)C(C)(C)NC(=O)[C@@H](N)Cc1ccc(O)cc1)[C@@H](C)O)C(=O)N[C@@H](CO)C(=O)N[C@@H](CC(=O)O)C(=O)N[C@@H](Cc1ccc(O)cc1)C(=O)N[C@@H](CO)C(=O)N[C@H](C(=O)N[C@@](C)(CC(C)C)C(=O)N[C@@H](CC(C)C)C(=O)N[C@@H](CC(=O)O)C(=O)N[C@@H](CCCCN)C(=O)N[C@@H](CCCCNC(=O)COCCOCCNC(=O)COCCOCCNC(=O)CC[C@H](NC(=O)CCCCCCCCCCCCCCCCCCC(=O)O)C(=O)O)C(=O)N[C@@H](Cc1c[nH]cn1)C(=O)N[C@@H](CCC(N)=O)C(=O)NC(C)(C)C(=O)N[C@@H](CCC(=O)O)C(=O)N[C@@H](Cc1ccccc1)C(=O)N[C@H](C(=O)N[C@@H](CCC(=O)O)C(=O)N[C@@H](Cc1ccc(O)cc1)C(=O)N[C@@H](CC(C)C)C(=O)N[C@@H](CC(C)C)C(=O)N[C@@H](CCC(=O)O)C(=O)N[C@@H](CCC(N)=O)C(=O)NCC(=O)N1CCC[C@H]1C(=O)N[C@@H](CO)C(=O)N[C@@H](CO)C(=O)NCC(=O)N[C@@H](C)C(=O)N1CCC[C@H]1C(=O)N1CCC[C@H]1C(=O)N1CCC[C@H]1C(=O)N[C@@H](CO)C(N)=O)C(C)C)[C@@H](C)CC
B3: Example 65 (peptide)
peptide: Y[Aib]EGTFISDYSI[αMeL]LDKK([AEEA-AEEA-γGlu-C20 diacid])HQ[Aib]EFVEYLLEAGPSSGAPPPS-NH2
modifications: N-terminus assumed
SMILES: CC[C@H](C)[C@H](NC(=O)[C@H](Cc1ccccc1)NC(=O)[C@@H](NC(=O)CNC(=O)[C@H](CCC(=O)O)NC(=O)C(C)(C)NC(=O)[C@@H](N)Cc1ccc(O)cc1)[C@@H](C)O)C(=O)N[C@@H](CO)C(=O)N[C@@H](CC(=O)O)C(=O)N[C@@H](Cc1ccc(O)cc1)C(=O)N[C@@H](CO)C(=O)N[C@H](C(=O)N[C@@](C)(CC(C)C)C(=O)N[C@@H](CC(C)C)C(=O)N[C@@H](CC(=O)O)C(=O)N[C@@H](CCCCN)C(=O)N[C@@H](CCCCNC(=O)COCCOCCNC(=O)COCCOCCNC(=O)CC[C@H](NC(=O)CCCCCCCCCCCCCCCCCCC(=O)O)C(=O)O)C(=O)N[C@@H](Cc1c[nH]cn1)C(=O)N[C@@H](CCC(N)=O)C(=O)NC(C)(C)C(=O)N[C@@H](CCC(=O)O)C(=O)N[C@@H](Cc1ccccc1)C(=O)N[C@H](C(=O)N[C@@H](CCC(=O)O)C(=O)N[C@@H](Cc1ccc(O)cc1)C(=O)N[C@@H](CC(C)C)C(=O)N[C@@H](CC(C)C)C(=O)N[C@@H](CCC(=O)O)C(=O)N[C@@H](C)C(=O)NCC(=O)N1CCC[C@H]1C(=O)N[C@@H](CO)C(=O)N[C@@H](CO)C(=O)NCC(=O)N[C@@H](C)C(=O)N1CCC[C@H]1C(=O)N1CCC[C@H]1C(=O)N1CCC[C@H]1C(=O)N[C@@H](CO)C(N)=O)C(C)C)[C@@H](C)CC
B4: Example 54 (peptide)
peptide: Y[Aib]EGTFISDYSI[αMeL]LDKK([AEEA-AEEA-γGlu-C20 diacid])HQ[Aib]DFVEWLLAGGPSSGAPPPS-NH2
modifications: N-terminus assumed
SMILES: CC[C@H](C)[C@H](NC(=O)[C@H](Cc1ccccc1)NC(=O)[C@@H](NC(=O)CNC(=O)[C@H](CCC(=O)O)NC(=O)C(C)(C)NC(=O)[C@@H](N)Cc1ccc(O)cc1)[C@@H](C)O)C(=O)N[C@@H](CO)C(=O)N[C@@H](CC(=O)O)C(=O)N[C@@H](Cc1ccc(O)cc1)C(=O)N[C@@H](CO)C(=O)N[C@H](C(=O)N[C@@](C)(CC(C)C)C(=O)N[C@@H](CC(C)C)C(=O)N[C@@H](CC(=O)O)C(=O)N[C@@H](CCCCN)C(=O)N[C@@H](CCCCNC(=O)COCCOCCNC(=O)COCCOCCNC(=O)CC[C@H](NC(=O)CCCCCCCCCCCCCCCCCCC(=O)O)C(=O)O)C(=O)N[C@@H](Cc1c[nH]cn1)C(=O)N[C@@H](CCC(N)=O)C(=O)NC(C)(C)C(=O)N[C@@H](CC(=O)O)C(=O)N[C@@H](Cc1ccccc1)C(=O)N[C@H](C(=O)N[C@@H](CCC(=O)O)C(=O)N[C@@H](Cc1c[nH]c2ccccc12)C(=O)N[C@@H](CC(C)C)C(=O)N[C@@H](CC(C)C)C(=O)N[C@@H](C)C(=O)NCC(=O)NCC(=O)N1CCC[C@H]1C(=O)N[C@@H](CO)C(=O)N[C@@H](CO)C(=O)NCC(=O)N[C@@H](C)C(=O)N1CCC[C@H]1C(=O)N1CCC[C@H]1C(=O)N1CCC[C@H]1C(=O)N[C@@H](CO)C(N)=O)C(C)C)[C@@H](C)CC
B5: Example 64 (peptide)
peptide: Y[Aib]EGTFISDYSI[αMeL]LDKK([AEEA-AEEA-γGlu-C20 diacid])HQ[Aib]EFVEYLLETGPSSGAPPPS-NH2
modifications: N-terminus assumed
SMILES: CC[C@H](C)[C@H](NC(=O)[C@H](Cc1ccccc1)NC(=O)[C@@H](NC(=O)CNC(=O)[C@H](CCC(=O)O)NC(=O)C(C)(C)NC(=O)[C@@H](N)Cc1ccc(O)cc1)[C@@H](C)O)C(=O)N[C@@H](CO)C(=O)N[C@@H](CC(=O)O)C(=O)N[C@@H](Cc1ccc(O)cc1)C(=O)N[C@@H](CO)C(=O)N[C@H](C(=O)N[C@@](C)(CC(C)C)C(=O)N[C@@H](CC(C)C)C(=O)N[C@@H](CC(=O)O)C(=O)N[C@@H](CCCCN)C(=O)N[C@@H](CCCCNC(=O)COCCOCCNC(=O)COCCOCCNC(=O)CC[C@H](NC(=O)CCCCCCCCCCCCCCCCCCC(=O)O)C(=O)O)C(=O)N[C@@H](Cc1c[nH]cn1)C(=O)N[C@@H](CCC(N)=O)C(=O)NC(C)(C)C(=O)N[C@@H](CCC(=O)O)C(=O)N[C@@H](Cc1ccccc1)C(=O)N[C@H](C(=O)N[C@@H](CCC(=O)O)C(=O)N[C@@H](Cc1ccc(O)cc1)C(=O)N[C@@H](CC(C)C)C(=O)N[C@@H](CC(C)C)C(=O)N[C@@H](CCC(=O)O)C(=O)N[C@H](C(=O)NCC(=O)N1CCC[C@H]1C(=O)N[C@@H](CO)C(=O)N[C@@H](CO)C(=O)NCC(=O)N[C@@H](C)C(=O)N1CCC[C@H]1C(=O)N1CCC[C@H]1C(=O)N1CCC[C@H]1C(=O)N[C@@H](CO)C(N)=O)[C@@H](C)O)C(C)C)[C@@H](C)CC

What follows are binders tested against T1, human glucose-dependent insulinotropic … (assay: SPA, displacement of [125I]-GIP from hGIPR membranes, 0.1% bacitracin).

B1 and B2 are within 1.5-fold of each other in Ki: 0.0184 nM for the first, 0.0248 nM for the second.

B3 and B4 are within 1.5-fold of each other in Ki: 0.0316 nM for the first, 0.0326 nM for the second.

B5 was tested, and the Ki was 0.022 nM.

What follows are binders tested against T2, human glucagon receptor (human, UniProt P47871 26-477) (assay: SPA, displacement of [125I]-Gcg from hGcgR membranes, 0.1% bacitracin).
T2 construct: whole, on cells; Assayed as crude membranes of stably transfected HEK293 cells; also called hGcgR; GcgR
T2 sequence (P47871 26-477): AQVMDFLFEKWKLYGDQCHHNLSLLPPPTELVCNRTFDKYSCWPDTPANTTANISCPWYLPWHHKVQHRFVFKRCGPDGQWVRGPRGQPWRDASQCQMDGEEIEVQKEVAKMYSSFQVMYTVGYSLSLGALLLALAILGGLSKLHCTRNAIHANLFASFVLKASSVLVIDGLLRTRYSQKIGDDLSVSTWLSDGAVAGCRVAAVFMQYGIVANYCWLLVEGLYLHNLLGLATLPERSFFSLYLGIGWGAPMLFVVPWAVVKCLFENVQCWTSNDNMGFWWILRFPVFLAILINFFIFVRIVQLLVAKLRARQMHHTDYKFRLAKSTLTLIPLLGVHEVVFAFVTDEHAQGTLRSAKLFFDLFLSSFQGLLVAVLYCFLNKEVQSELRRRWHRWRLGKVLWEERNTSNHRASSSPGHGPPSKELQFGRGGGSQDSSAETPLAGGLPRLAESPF
How it was run: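 Binding buffer: 25 mM HEPES pH 7.4, 2.5 mM CaCl₂, 1 mM MgCl₂, 0.003% Tween-20, protease inhibitors without EDTA. Counted by scintillation after 12 h incubation/settling at room temperature. Four-parameter nonlinear fit; Kᵢ given as geometric mean ± SEM of independent replicates run on different days.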

B1 and B2 are within 1.5-fold of each other in Ki: 152 nM for the first, 185 nM for the second.

B3 and B4 are within 1.5-fold of each other in Ki: 279 nM for the first, 386 nM for the second.

In the case of B5, the Ki is reported as 196 nM.

Each binder was assayed against T3, human GLP-1 receptor (human, UniProt P43220 24-463) (assay: SPA, displacement of [125I]-GLP-1 from hGLP-1R membranes, 0.1% bacitracin).
T3 construct: whole, on cells; Assayed as crude membranes of stably transfected HEK293 cells; also called hGLP1R; hGLP-1R
How it was run: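 Binding buffer: 25 mM HEPES pH 7.4, 2.5 mM CaCl₂, 1 mM MgCl₂, 0.1% bacitracin, 0.003% Tween-20, protease inhibitors without EDTA. Four-parameter nonlinear regression; Kᵢ given as geometric mean ± SEM, n = independent replicates run on different days.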

Compared with B1, B2 is 5.2-fold higher in Ki: 62.9 nM for the first, 327 nM for the second. The first binds more tightly here.

Compared with B3, B4 is 6.1-fold lower in Ki: 305 nM for the first, 49.9 nM for the second.

Binder B5 has a Ki of 477 nM.
